Values joined by “and” are separate entries in the source; they are usually repeats but may differ in a detail not shown here. Equal entries are not always repeated. Where two headings read alike, the source gives them in different places.
T1: murine GPRC5D (murine, UniProt Q9JIL6 1-344)
T1 construct: whole, on cells
T1 sequence (looked up): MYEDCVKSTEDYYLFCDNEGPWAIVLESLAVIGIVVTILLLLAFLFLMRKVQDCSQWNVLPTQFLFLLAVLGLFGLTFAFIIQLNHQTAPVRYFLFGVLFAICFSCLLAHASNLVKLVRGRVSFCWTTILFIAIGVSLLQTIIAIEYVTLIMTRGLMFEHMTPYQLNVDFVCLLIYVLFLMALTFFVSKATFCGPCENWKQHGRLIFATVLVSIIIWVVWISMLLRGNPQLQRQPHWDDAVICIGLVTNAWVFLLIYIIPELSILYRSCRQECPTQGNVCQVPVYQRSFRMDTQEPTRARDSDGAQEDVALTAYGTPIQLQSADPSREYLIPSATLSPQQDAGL


Legend:
human GPRC5A = biological target: T2, human GPRC5A (human, UniProt Q8NFJ5 1-357); assay: cell ELISA on stably transfected CHO cells
T2 construct: whole, on cells; also called hu GPCR5A; GPRCSA
T2 sequence (Q8NFJ5 whole entry): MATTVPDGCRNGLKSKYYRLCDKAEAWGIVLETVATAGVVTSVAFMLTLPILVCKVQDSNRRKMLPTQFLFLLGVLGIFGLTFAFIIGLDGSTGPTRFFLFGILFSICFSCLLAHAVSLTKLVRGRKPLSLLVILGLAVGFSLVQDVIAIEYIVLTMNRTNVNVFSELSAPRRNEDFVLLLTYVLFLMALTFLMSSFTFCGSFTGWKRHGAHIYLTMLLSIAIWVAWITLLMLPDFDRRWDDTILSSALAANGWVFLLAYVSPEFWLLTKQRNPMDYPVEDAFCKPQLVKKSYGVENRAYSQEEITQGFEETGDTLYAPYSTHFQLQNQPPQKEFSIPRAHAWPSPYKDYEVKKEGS
Procedure: (§1) Stable transfected CHO clones expressing either human GPRCSD or cynomolgus GPRCSD or murine GPRCSD or human GPRCSA were used to analyze the binding of potential lead candidate antibodies as IgGs. In detail, 10⁴ cells (viability≥98%) were seeded into 384 well-microtiter plates (BD Poly D-Lysin, #356662, volume: 25 μl/well) using fresh culture medium. After overnight incubation at 37° C., 25 μl/well dilutions of antibodies were added (15×1:3 dilutions in 1×PBS, assay conc. starts at 30 μg/ml) to the cells for 2 hours at 4° C. After one washing step using 90 μl/well PBST (10×PBS, Roche, #11666789001+0.1% Tween 20), cells were subsequently fixed by the addition of 50 μl/well 0.05% glutaraldehyde (Sigma Cat. No: G5882 in 1×PBS) for 10 min at room temperature (RT). After three additional washing steps using 90 μl/well PBST, secondary antibodies were added for detection: for human antibodies goat anti-human Ig a chain antibody HRP conjugate (Millipore #AP502P) diluted 1:2000 in blocking buffer (1×PBS (Roche #11666789001)+2% BSA (Bovine Serum Albumin Fraction V, fatty acid free, Roche, #10735086001)+0.05% Tween 20) was used (25 μl/well). […] After incubation for 1 h at RT and three additional washing steps using 90 μl/well PBST, 25 μl/well TMB substrate was added (Roche order no. 11835033001) for 10 min and color development to final ODs was determined by measurement at 370 nm/492 nm.
(§2) Cynomolgus crossreactivity was also detected for all other antibodies but at lower levels compared to 10B10 and 07A04 (FIG. 9). No significant binding to CHO cells expressing murine GPRC5D and no binding to CHO cells expressing the human version of GPRC5A was detected (FIG. 9).

murine GPRC5D = biological target: T1, murine GPRC5D; assay: cell ELISA on stably transfected CHO cells
Procedure: as §1, §2

human GPRC5D [1] = biological target: T3, human GPRC5D (human, UniProt Q9NZD1 1-345); assay: cell ELISA, CHO cells stably expressing human GPRC5D
T3 construct: also called G protein-coupled receptor class C group 5 member D; hu GPCR5D
T3 sequence (Q9NZD1 whole entry): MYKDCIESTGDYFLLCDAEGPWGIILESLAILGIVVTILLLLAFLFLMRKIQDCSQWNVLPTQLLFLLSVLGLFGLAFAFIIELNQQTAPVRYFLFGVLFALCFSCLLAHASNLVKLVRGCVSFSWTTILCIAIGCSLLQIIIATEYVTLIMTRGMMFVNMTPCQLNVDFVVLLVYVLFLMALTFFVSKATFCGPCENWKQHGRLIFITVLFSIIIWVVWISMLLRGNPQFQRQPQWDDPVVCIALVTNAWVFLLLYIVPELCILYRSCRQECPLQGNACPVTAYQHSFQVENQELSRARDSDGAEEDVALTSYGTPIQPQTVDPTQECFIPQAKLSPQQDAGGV
Procedure: as §1

cynomolgus GPRC5D = biological target: T4, cynomolgus GPRC5D (cynomolgus); assay: cell ELISA, CHO cells stably expressing cynomolgus GPRC5D
T4 construct: whole, on cells; also called cyno GPRC5D; CHO cy GPCR5D
Procedure: as §1

human GPRC5D [2] = biological target: T3, human GPRC5D; assay: cell-based or functional assay
human GPRC5D [3] = biological target: T3, human GPRC5D; assay: flow cytometry on NCI-H929 cells; paragraph 550 says these values were falsely calculated by a factor of 10 (too low)
Procedure: To measure the binding to GPRC5D, we performed a flow cytometry-based binding assay on reported multiple myeloma cell lines (Lombardi et al., Molecular characterization of human multiple myeloma cell lines by integrative genomics: insights into the biology of the disease; Genes Chromosomes Cancer. 2007 March; 46(3):226-38). The cell line NCI-H929 (ATCC® CRL-9068) was cultured in RPMI 1640 with Glutamax medium (Gibco) supplemented with 10% FBS, 1× Penicillin/Streptomycin (Gibco), 1× Sodium Pyruvate (Gibco) and 50 μM beta-Mercaptoethanol (Gibco). Jurkat-NFAT reporter cells (a CD3-expressing human acute lymphatic leukemia reporter cell line with a NFAT promoter, GloResponse Jurkat NFAT-RE-luc2P, Promega #CS176501) were cultured in RPMI 1640, containing 2 g/l Glucose, 2 g/l NaHCO₃, 10% FCS, 25 mM HEPES, 2 mM L-Glutamine, 1×NEAA, 1× Sodium-pyruvate and 200 μg/ml Hygromycin B.
Flow cytometry acquisition was performed on a custom-designed BD Biosciences Fortessa and analyzed using BD Diva. EC50 values were calculated, using GraphPad Prism software.

human GPRC5D [4] = biological target: T3, human GPRC5D; assay: cell-based or functional assay; remark: listed apart in the source
human GPRC5D [5] = biological target: T3, human GPRC5D; assay: cell-based or functional assay; remark: listed apart in the source
human GPRC5D [6] = biological target: T3, human GPRC5D; assay: cell-based or functional assay; remark: listed apart in the source
human GPRC5D [7] = biological target: T3, human GPRC5D; assay: cell ELISA, CHO hu GPRC5D (EC/IC50 rel)
Method in brief: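 Stably transfected CHO cells seeded overnight, then incubated 2 h at 4° C with antibody IgGs in 15-point 1:3 dilutions from 30 μg/ml. Cells fixed with 0.05% glutaraldehyde; binding detected with HRP anti-human Ig and TMB, absorbance at 370/492 nm.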

human GPRC5D [8] = biological target: T3, human GPRC5D; assay: cell-based or functional assay; remark: listed apart in the source

Binder	binding result (human GPRC5A)	binding result (murine GPRC5D)	EC50 (human GPRC5D [1])	EC50 (cynomolgus GPRC5D)	EC50 (pM), activation of autologous T-cells (CD69 on CD8 T cells) with a primary MM sample (human GPRC5D [2]) [pM]	EC50 (human GPRC5D [3]) [nM]	AUC, activation of Jurkat-NFAT reporter cells in presence of RPMI-8226 cells (human GPRC5D [4])	EC50 (pM), activation of Jurkat-NFAT reporter cells in presence of RPMI-8226 cells (human GPRC5D [4]) [pM]	CAR-J2 EC50 [ng/mL] (PGLALA-CAR-J activation, L363 target cells) (human GPRC5D [5])	EC50 values of CAR-J activation (human GPRC5D [6]) [ng/mL]	EC50 (human GPRC5D [7])	CAR-J2 EC50 [ng/mL] (PGLALA-CAR-J activation, L363 target cells) (human GPRC5D [8])
10B10 IgG (antibody, V domains shown) VH: EVQLVESGGGLVQPGRSMKLSCAASGFTFTNFYMAWVRQAPTKALEWVASINTGGGYTYYRDSVKGRFTVSRDNTRSTLYLQMDSLRSEETATYYCARHLTYYGRYYYFDYWGQGVMVTVSS VL: DIQLTQSPHSLSASLGETVSIECLASEGISNYLAWFHQKPGKSPQLLIYYASSLQDGVPSRFSGSGSGTQYSLKISNMQPEDEGVYYCQQGYKYPLTFGSGTKLEIK	no binding (tested: assay conc. starts at 30 µg/ml)	no binding (tested: assay conc. starts at 30 µg/ml)	0.0163 µg/mL and 0.109 nM	0.012 µg/mL and 0.08 nM	–	–	–	–	–	–	–	–
5F11(VH1c + VL1b)-C122-TCB (P1AE6624) (bispecific antibody, human IgG1, kappa, L234A L235A, 2+1 TCB: LC1 (anti-GPRC5D), LC2 (anti-CD3 crossed), HC1 Fc hole, HC2 Fc knob) light 1: DIVMTQSPLSLPVTPGEPASISCRSSKSLLHSNGITYVYWYLQKPGKSPQVLIYRMSNLASGVPDRFSGSGSGTDFTLKISRVEAEDVGVYHCGQLLENPYTFGQGTKLEIKRTVAAPSVFIFPPSDRKLKSGTASVVCLLNNFYPREAKVQWKVDNALQSGNSQESVTEQDSKDSTYSLSSTLTLSKADYEKHKVYACEVTHQGLSSPVTKSFNRGEC light 2: EVQLLESGGGLVQPGGSLRLSCAASGFQFSSYAMNWVRQAPGKGLEWVSRIRSKYNNYATYYADSVKGRFTISRDDSKNTLYLQMNSLRAEDTAVYYCVRHTTFPSSYVSYYGYWGQGTLVTVSSASVAAPSVFIFPPSDEQLKSGTASVVCLLNNFYPREAKVQWKVDNALQSGNSQESVTEQDSKDSTYSLSSTLTLSKADYEKHKVYACEVTHQGLSSPVTKSFNRGEC heavy 1: QVQLVESGGGVVQPGRSLRLSCAASGFSFSNYGMAWVRQAPGKGLEWVASISTGGGNTYYADSVKGRFTISRDNSKNTLYLQMNSLRAEDTAVYYCTRHDRGGLYWGQGTMVTVSSASTKGPSVFPLAPSSKSTSGGTAALGCLVEDYFPEPVTVSWNSGALTSGVHTFPAVLQSSGLYSLSSVVTVPSSSLGTQTYICNVNHKPSNTKVDEKVEPKSCDKTHTCPPCPAPEAAGGPSVFLFPPKPKDTLMISRTPEVTCVVVDVSHEDPEVKFNWYVDGVEVHNAKTKPREEQYNSTYRVVSVLTVLHQDWLNGKEYKCKVSNKALGAPIEKTISKAKGQPREPQVCTLPPSRDELTKNQVSLSCAVKGFYPSDIAVEWESNGQPENNYKTTPPVLDSDGSFFLVSKLTVDKSRWQQGNVFSCSVMHEALHNHYTQKSLSLSPGK heavy 2: not shown	–	–	–	–	1.06	0.1	881000	4.5	–	–	–	–
5E11-IgG (antibody, V domains shown, Rat-derived variable domains, tested as IgG; also called P1AE5706 (parental); 5E11 parental) VH: ELQLEQSGGGLVQPGGSLTLSCAASGFTFSKYAMAWVRQAPTKGLEWVASISTGGVNTYYRDSVKARFTISRDNAKNTQYLQMDSLRSEDTATYYCATHTGDYFDYWGQGVMVTVSS VL: DIVLTQSPALAVSPGQRATISCRASQSVSISGINLMNWYQQKPGQQPKLLIYHASILASGIPTRFSGSGSGTDFTLTIDPVQADDIATYYCQQTRESPLTFGSGTNLEIK	no binding (tested: assay conc. starts at 30 µg/ml)	–	0.0296 µg/mL and 0.198 nM	–	–	–	–	–	3.9	3.9	0.0104 µg/mL and 0.07 nM	–
5F11-IgG (antibody, V domains shown, Rat-derived variable domains, tested as IgG; also called P1AE5733 (parental); 5F11_parental) VH: EVQLVESGGGLVQPGRSLKLSCAASGFSFSNYGMAWVRQAATKGLEWVASISTGGGNTYYRDSVKGRFIVSRDNAKNTQYLQMDSLRSEDTATYYCTRHDRGGLYWGQGVMVTVSS VL: DIVMTQAPLSVSVTPGESASISCRSSKSLLHSNGITYVYWYFQKPGKSPQVLIYRMSNLASGVPDRFSGSGSETDFTLKISRVEAEDVGIYHCGQLLENPYTFGAGTELELK	no binding (tested: assay conc. starts at 30 µg/ml)	–	0.0217 µg/mL and 0.144 nM	–	–	–	–	–	–	2.65	0.0058 µg/mL and 0.04 nM	2.65
07A04 IgG (antibody, V domains shown, the format as tested is not certain) VH: QVTLKESGPGILQPSHTLSLTCSFSGFSLSTYGMGVNWIRQPSGKGLEWLASIWWNGNTYNNPSLKSRLTVSKDTSNNQAFLKVTSVDTADTATYYCVHTRGIIRGRGLFFDYWGQGVMVTVSS VL: DVQMTQSPYNLAASPGESVSINCKASKSISKYLAWYQQKPGKANKLLIYDGSTLQSGIPSRFSGSGSGTDFTLTIRSLEPEDFGLYYCQQHNEYPLTFGSGTKLEIKR	no binding (tested: assay conc. starts at 30 µg/ml)	no binding (tested: assay conc. starts at 30 µg/ml)	0.0243 µg/mL and 0.162 nM	0.115 µg/mL and 0.764 nM	–	–	–	–	–	–	–	–
